From publication PMC10786891, “Massively parallel profiling of RNA-targeting CRISPR-Cas13d” come the findings set out here.

T1: EsCas13d, nuclease-dead (Eubacterium siraeum, UniProt B0MS50, R295A;H300A;R849A;H854A)
T1 sequence: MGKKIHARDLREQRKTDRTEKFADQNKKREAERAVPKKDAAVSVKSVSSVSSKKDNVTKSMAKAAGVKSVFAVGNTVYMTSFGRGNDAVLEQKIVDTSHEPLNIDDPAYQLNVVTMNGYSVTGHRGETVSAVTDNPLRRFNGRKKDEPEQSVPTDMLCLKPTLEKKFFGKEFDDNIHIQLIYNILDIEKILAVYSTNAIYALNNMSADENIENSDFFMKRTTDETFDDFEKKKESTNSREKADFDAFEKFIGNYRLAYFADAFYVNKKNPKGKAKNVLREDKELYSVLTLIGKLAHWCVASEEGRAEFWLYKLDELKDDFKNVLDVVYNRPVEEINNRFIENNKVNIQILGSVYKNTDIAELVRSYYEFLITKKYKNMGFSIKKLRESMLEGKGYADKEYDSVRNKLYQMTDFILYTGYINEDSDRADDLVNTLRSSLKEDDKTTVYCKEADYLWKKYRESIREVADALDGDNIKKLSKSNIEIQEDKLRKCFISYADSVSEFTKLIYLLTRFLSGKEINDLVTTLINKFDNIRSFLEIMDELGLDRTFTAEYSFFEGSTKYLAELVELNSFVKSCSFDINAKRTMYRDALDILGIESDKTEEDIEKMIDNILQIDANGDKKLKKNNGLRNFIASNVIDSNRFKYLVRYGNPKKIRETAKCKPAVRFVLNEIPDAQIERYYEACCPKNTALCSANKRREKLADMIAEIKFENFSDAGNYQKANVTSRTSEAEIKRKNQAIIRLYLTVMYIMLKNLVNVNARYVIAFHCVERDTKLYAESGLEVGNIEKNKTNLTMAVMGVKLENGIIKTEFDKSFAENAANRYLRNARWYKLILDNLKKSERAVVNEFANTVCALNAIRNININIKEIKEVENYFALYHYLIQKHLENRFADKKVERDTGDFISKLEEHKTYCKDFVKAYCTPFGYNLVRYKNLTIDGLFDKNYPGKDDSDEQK

B1: target 1 A1U,U8A (mixed)
RNA 1: CACCCGUGCAAAAAUGCAGGGGUCUAAAACUGAGCGGAUAACCUCUCUAUGG
RNA 2: GGGAAUGGAUCCACAUCUACGAAUUCGUACCAUAGAGAGGUUAACCGCUCUCCGAGAUCGGAAGAGCACACGU
B2: target 1 A9G,A18U (mixed)
RNA 1: CACCCGUGCAAAAAUGCAGGGGUCUAAAACUGAGCGGAUAACCUCUCUAUGG
RNA 2: GGGAAUGGAUCCACAUCUACGAAUUCGUACCAUUGAGAGGUUGUCCGCUCACCGAGAUCGGAAGAGCACACGU
B3: target 1 U10G,A18U (mixed)
RNA 1: CACCCGUGCAAAAAUGCAGGGGUCUAAAACUGAGCGGAUAACCUCUCUAUGG
RNA 2: GGGAAUGGAUCCACAUCUACGAAUUCGUACCAUUGAGAGGUGAUCCGCUCACCGAGAUCGGAAGAGCACACGU
B4: target 1 insU 3' of 14,insC 3' of 5 (mixed)
RNA 1: CACCCGUGCAAAAAUGCAGGGGUCUAAAACUGAGCGGAUAACCUCUCUAUGG
RNA 2: GGGAAUGGAUCCACAUCUACGAAUUCGUACCAUAGAGAUGGUUAUCCGCCUCACCGAGAUCGGAAGAGCACACGU
B5: target 3 insU 3' of 22,insC 3' of 9 (mixed)
RNA 1: CACCCGUGCAAAAUUGCAGGGGUCUAAAACGACCUGAAUAUUUCAGAUCAAA
RNA 2: GGGAAUGGAUCCACAUCUACGAAUUCGUUUUUUGAUCUGAAAUACUUCAGGUCUGCAGAUCGGAAGAGCACACGU
B6: target 3 U2G,A12G (mixed)
RNA 1: CACCCGUGCAAAAUUGCAGGGGUCUAAAACGACCUGAAUAUUUCAGAUCAAA
RNA 2: GGGAAUGGAUCCACAUCUACGAAUUCGUUUUUGAUCUGAGAUAUUCAGGGCUGCAGAUCGGAAGAGCACACGU
B7: target 3 insA 3' of 7,insC 3' of 7 (mixed)
RNA 1: CACCCGUGCAAAAUUGCAGGGGUCUAAAACGACCUGAAUAUUUCAGAUCAAA
RNA 2: GGGAAUGGAUCCACAUCUACGAAUUCGUUUUUGAUCUGAAAUAUUACCAGGUCUGCAGAUCGGAAGAGCACACGU
B8: target 3 insA 3' of 7,insU 3' of 5 (mixed)
RNA 1: CACCCGUGCAAAAUUGCAGGGGUCUAAAACGACCUGAAUAUUUCAGAUCAAA
RNA 2: GGGAAUGGAUCCACAUCUACGAAUUCGUUUUUGAUCUGAAAUAUUACAUGGUCUGCAGAUCGGAAGAGCACACGU
B9: target 3 C1A,U22A (mixed)
RNA 1: CACCCGUGCAAAAUUGCAGGGGUCUAAAACGACCUGAAUAUUUCAGAUCAAA
RNA 2: GGGAAUGGAUCCACAUCUACGAAUUCGUUAUUGAUCUGAAAUAUUCAGGUAUGCAGAUCGGAAGAGCACACGU
B10: target 3 insC 3' of 8,insC 3' of 7 (mixed)
RNA 1: CACCCGUGCAAAAUUGCAGGGGUCUAAAACGACCUGAAUAUUUCAGAUCAAA
RNA 2: GGGAAUGGAUCCACAUCUACGAAUUCGUUUUUGAUCUGAAAUAUCUCCAGGUCUGCAGAUCGGAAGAGCACACGU
B11: target 3 A12G,U22C (mixed)
RNA 1: CACCCGUGCAAAAUUGCAGGGGUCUAAAACGACCUGAAUAUUUCAGAUCAAA
RNA 2: GGGAAUGGAUCCACAUCUACGAAUUCGUUCUUGAUCUGAGAUAUUCAGGUCUGCAGAUCGGAAGAGCACACGU
B12: target 3 insA 3' of 7,insA 3' of 2 (mixed)
RNA 1: CACCCGUGCAAAAUUGCAGGGGUCUAAAACGACCUGAAUAUUUCAGAUCAAA
RNA 2: GGGAAUGGAUCCACAUCUACGAAUUCGUUUUUGAUCUGAAAUAUUACAGGUACUGCAGAUCGGAAGAGCACACGU
B13: target 3 C1G,U8G (mixed)
RNA 1: CACCCGUGCAAAAUUGCAGGGGUCUAAAACGACCUGAAUAUUUCAGAUCAAA
RNA 2: GGGAAUGGAUCCACAUCUACGAAUUCGUUUUUGAUCUGAAAUAGUCAGGUGUGCAGAUCGGAAGAGCACACGU
B14: target 3 C1U,U22A (mixed)
RNA 1: CACCCGUGCAAAAUUGCAGGGGUCUAAAACGACCUGAAUAUUUCAGAUCAAA
RNA 2: GGGAAUGGAUCCACAUCUACGAAUUCGUUAUUGAUCUGAAAUAUUCAGGUUUGCAGAUCGGAAGAGCACACGU
B15: target 3 insU 3' of 14,insA 3' of 3 (mixed)
RNA 1: CACCCGUGCAAAAUUGCAGGGGUCUAAAACGACCUGAAUAUUUCAGAUCAAA
RNA 2: GGGAAUGGAUCCACAUCUACGAAUUCGUUUUUGAUCUGUAAAUAUUCAGGAUCUGCAGAUCGGAAGAGCACACGU
B16: target 3 insU 3' of 14,insU 3' of 5 (mixed)
RNA 1: CACCCGUGCAAAAUUGCAGGGGUCUAAAACGACCUGAAUAUUUCAGAUCAAA
RNA 2: GGGAAUGGAUCCACAUCUACGAAUUCGUUUUUGAUCUGUAAAUAUUCAUGGUCUGCAGAUCGGAAGAGCACACGU
B17: target 3 U8G (mixed)
RNA 1: CACCCGUGCAAAAUUGCAGGGGUCUAAAACGACCUGAAUAUUUCAGAUCAAA
RNA 2: GGGAAUGGAUCCACAUCUACGAAUUCGUUUUUGAUCUGAAAUAGUCAGGUCUGCAGAUCGGAAGAGCACACGU
B18: target 3 insU 3' of 4,insC 3' of 4 (mixed)
RNA 1: CACCCGUGCAAAAUUGCAGGGGUCUAAAACGACCUGAAUAUUUCAGAUCAAA
RNA 2: GGGAAUGGAUCCACAUCUACGAAUUCGUUUUUGAUCUGAAAUAUUCAGUCGUCUGCAGAUCGGAAGAGCACACGU
B19: target 3 C1G,C6A (mixed)
RNA 1: CACCCGUGCAAAAUUGCAGGGGUCUAAAACGACCUGAAUAUUUCAGAUCAAA
RNA 2: GGGAAUGGAUCCACAUCUACGAAUUCGUUUUUGAUCUGAAAUAUUAAGGUGUGCAGAUCGGAAGAGCACACGU
B20: target 3 U2G,U21C (mixed)
RNA 1: CACCCGUGCAAAAUUGCAGGGGUCUAAAACGACCUGAAUAUUUCAGAUCAAA
RNA 2: GGGAAUGGAUCCACAUCUACGAAUUCGUUUCUGAUCUGAAAUAUUCAGGGCUGCAGAUCGGAAGAGCACACGU
B21: target 3 insC 3' of 7,insA 3' of 4 (mixed)
RNA 1: CACCCGUGCAAAAUUGCAGGGGUCUAAAACGACCUGAAUAUUUCAGAUCAAA
RNA 2: GGGAAUGGAUCCACAUCUACGAAUUCGUUUUUGAUCUGAAAUAUUCCAGAGUCUGCAGAUCGGAAGAGCACACGU
B22: target 3 C6A (mixed)
RNA 1: CACCCGUGCAAAAUUGCAGGGGUCUAAAACGACCUGAAUAUUUCAGAUCAAA
RNA 2: GGGAAUGGAUCCACAUCUACGAAUUCGUUUUUGAUCUGAAAUAUUAAGGUCUGCAGAUCGGAAGAGCACACGU
B23: target 3 U2A,G3A (mixed)
RNA 1: CACCCGUGCAAAAUUGCAGGGGUCUAAAACGACCUGAAUAUUUCAGAUCAAA
RNA 2: GGGAAUGGAUCCACAUCUACGAAUUCGUUUUUGAUCUGAAAUAUUCAGAACUGCAGAUCGGAAGAGCACACGU
B24: target 3 insC 3' of 19,insU 3' of 5 (mixed)
RNA 1: CACCCGUGCAAAAUUGCAGGGGUCUAAAACGACCUGAAUAUUUCAGAUCAAA
RNA 2: GGGAAUGGAUCCACAUCUACGAAUUCGUUUUUGCAUCUGAAAUAUUCAUGGUCUGCAGAUCGGAAGAGCACACGU
B25: target 3 insG 3' of 7 (mixed)
RNA 1: CACCCGUGCAAAAUUGCAGGGGUCUAAAACGACCUGAAUAUUUCAGAUCAAA
RNA 2: GGGAAUGGAUCCACAUCUACGAAUUCGUUUUUGAUCUGAAAUAUUGCAGGUCUGCAGAUCGGAAGAGCACACGU
B26: target 3 insU 3' of 22,insG 3' of 6 (mixed)
RNA 1: CACCCGUGCAAAAUUGCAGGGGUCUAAAACGACCUGAAUAUUUCAGAUCAAA
RNA 2: GGGAAUGGAUCCACAUCUACGAAUUCGUUUUUUGAUCUGAAAUAUUCGAGGUCUGCAGAUCGGAAGAGCACACGU
B27: target 3 insC 3' of 9,insG 3' of 6 (mixed)
RNA 1: CACCCGUGCAAAAUUGCAGGGGUCUAAAACGACCUGAAUAUUUCAGAUCAAA
RNA 2: GGGAAUGGAUCCACAUCUACGAAUUCGUUUUUGAUCUGAAAUACUUCGAGGUCUGCAGAUCGGAAGAGCACACGU

The data set deals with T1, EsCas13d, nuclease-dead. Briefly: crRNA (strand 1, pre-loaded); Mg2+; 40 mM Tris-HCl pH 7.5, 150 mM NaCl, 6 mM MgCl2, 1 mM DTT, 0.1% Tween-20, 0.2 mg/ml BSA; 25 C; 10 min per concentration, then washed. The following applies: tags: His6-TwinStrep-SUMO cleaved; N-terminal SNAP kept (SNAP-Surface 488); label: 3' end held by stalled T7 RNA polymerase.
Take B1: the Kd (in general, the concentration at which binding is half-saturated) stood at 0.0267 ± 0.0013 µM.

B2: the Kd came to 0.0397 ± 0.0031 µM.

B3 registered a Kd of 0.057 ± 0.009 µM.

As to B4, the Kd was roughly 0.06 µM.

B5 displayed a Kd of 0.0825 ± 0.0215 µM.

In the case of B6, the Kd amounted to 0.0335 ± 0.006 µM.

For the molecule B7, binding was put at a Kd of 0.048 ± 0.0055 µM.

B8 returned a Kd of 0.0157 ± 0.0013 µM.

Take B9: the Kd was 0.0136 ± 0.0019 µM.

In turn, B10 returned a Kd of 0.0775 ± 0.016 µM.

With B11, the Kd is 0.0405 ± 0.0085 µM.

B12: the Kd turned out to be 0.051 ± 0.008 µM.

In turn, B13 came in with a Kd of 0.035 ± 0.006 µM. This Kd and that of the molecule before are within 1.5-fold of each other.

In the case of B14, the Kd is 0.0259 ± 0.0055 µM.

As for B15, the Kd was roughly 0.1 µM.

For B16, the affinity, expressed as Kd, was 0.0835 ± 0.0335 µM.

In the case of B17, the Kd came to 0.045 ± 0.006 µM.

As to B18, the Kd is 0.0195 ± 0.0025 µM.

For B19, binding was characterised by a dissociation constant (Kd) of 0.0305 ± 0.005 µM.

As to B20, the Kd was determined as 0.06 ± 0.0245 µM.

B21: the Kd came out at 0.097 ± 0.035 µM.

The molecule B22 gave a Kd of 0.0362 ± 0.0041 µM.

With B23, the Kd was 0.0385 ± 0.004 µM.

In turn, B24 registered a Kd of 0.13 ± 0.04 µM. This Kd is about 3.4-fold higher than that of the molecule before.

On to B25, for which the Kd was determined as 0.0655 ± 0.0135 µM.

For the molecule B26, the Kd worked out at 0.0077 ± 0.00065 µM.

Consider B27, for which binding was put at a Kd of 0.089 ± 0.0235 µM.
